According to patent publication US7052908B2, “Androgen receptor coactivators” (University of Rochester, priority 1998, dated 2006):
Blank lines part the entries; values can stand above or below the molecule they belong to.

Key:
[1] = tested on: ARA55 mRNA; experiment: Northern blot of ARA55 mRNA in PC3 cells; type: cell-based, human; conditions: TGFβ 5 ng/ml
Description: The total RNA (25 μg) was fractionated on a 1% formaldehyde-MOPS agarose gel, transferred onto a Hybond-N nylon membrane (Amersham) and prehybridized. A probe corresponding to the 900 bp C-terminus of ARA55 or an ARA54-specific sequence was ^32P-labeled in vitro using Random Primed DNA Labeling Kit (Boehringer-Mannheim) according to the manufacture's protocol and hybridized overnight. After washing, the blot was exposed and quantified by Molecular Dynamics PhosphorImager. β-actin was used to monitor the amount of total RNA in each lane.

[2] = target: T1, AR (Homo sapiens, UniProt P10275); experiment: AR transcriptional activity (MMTV-CAT) in PC3 cells; conditions: TGFβ treatment
T1 sequence (P10275 1-920): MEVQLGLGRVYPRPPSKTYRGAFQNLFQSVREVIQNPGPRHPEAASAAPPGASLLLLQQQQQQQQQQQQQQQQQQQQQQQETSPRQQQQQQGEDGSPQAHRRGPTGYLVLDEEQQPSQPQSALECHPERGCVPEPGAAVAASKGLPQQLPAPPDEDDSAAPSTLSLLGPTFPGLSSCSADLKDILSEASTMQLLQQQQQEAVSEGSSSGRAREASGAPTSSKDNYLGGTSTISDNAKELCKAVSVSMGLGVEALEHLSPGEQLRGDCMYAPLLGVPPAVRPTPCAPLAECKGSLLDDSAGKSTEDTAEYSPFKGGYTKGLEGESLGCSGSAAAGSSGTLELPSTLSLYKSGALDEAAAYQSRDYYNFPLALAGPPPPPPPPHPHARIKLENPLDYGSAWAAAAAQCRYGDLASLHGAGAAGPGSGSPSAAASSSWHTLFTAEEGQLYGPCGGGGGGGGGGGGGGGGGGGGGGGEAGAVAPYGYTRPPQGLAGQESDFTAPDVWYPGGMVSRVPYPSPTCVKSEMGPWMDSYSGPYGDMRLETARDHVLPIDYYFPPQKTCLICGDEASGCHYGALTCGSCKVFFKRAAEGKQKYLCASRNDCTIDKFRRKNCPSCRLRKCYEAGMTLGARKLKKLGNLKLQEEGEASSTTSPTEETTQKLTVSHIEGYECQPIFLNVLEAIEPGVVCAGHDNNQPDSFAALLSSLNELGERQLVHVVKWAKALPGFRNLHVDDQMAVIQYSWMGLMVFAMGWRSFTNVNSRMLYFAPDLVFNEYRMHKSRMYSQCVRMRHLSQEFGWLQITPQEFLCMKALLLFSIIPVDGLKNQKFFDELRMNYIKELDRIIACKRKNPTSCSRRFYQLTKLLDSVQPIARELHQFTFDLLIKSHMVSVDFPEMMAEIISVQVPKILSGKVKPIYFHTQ

[3] = tested on: AR; experiment: Mammalian two-hybrid assay with CAT reporter in DU145 cells; type: cell-based, human
Description: The mammalian two-hybrid system employed was essentially the protocol of Clontech (California), with the following modifications. […] The hinge and LBD of wtAR were then inserted into pGAL0. Similarly, the VP16 activation domain was fused to pCMX under the control of a CMV promoter, and designated pCMX-VP16 (provided by Dr. R. M. Evan).

[4] = target: T2, wtAR (Homo sapiens, UniProt P10275); experiment: AR transactivation, transient transfection with MMTV-CAT reporter in DU145 cells; conditions: for AR transcriptional activity induction with cotransfected coactivator: wild type AR, 1 nM DHT, DU145, from 5-fold without coactivator
T2 sequence (P10275 1-920): T1 sequence (P10275 1-920)

[5] = tested on: mARt877s; experiment: AR transactivation, transient transfection CAT reporter assay, mutant AR; type: cell-based, human
[6] = target: T3, glucocorticoid receptor (GR) (Homo sapiens, UniProt P04150); experiment: Steroid receptor transactivation, MMTV-CAT reporter in DU145 cells; type: cell-based; conditions: DU145 cells
T3 construct: expressed in transfected cells; host or cells: DU145
T3 sequence (P04150 1-777): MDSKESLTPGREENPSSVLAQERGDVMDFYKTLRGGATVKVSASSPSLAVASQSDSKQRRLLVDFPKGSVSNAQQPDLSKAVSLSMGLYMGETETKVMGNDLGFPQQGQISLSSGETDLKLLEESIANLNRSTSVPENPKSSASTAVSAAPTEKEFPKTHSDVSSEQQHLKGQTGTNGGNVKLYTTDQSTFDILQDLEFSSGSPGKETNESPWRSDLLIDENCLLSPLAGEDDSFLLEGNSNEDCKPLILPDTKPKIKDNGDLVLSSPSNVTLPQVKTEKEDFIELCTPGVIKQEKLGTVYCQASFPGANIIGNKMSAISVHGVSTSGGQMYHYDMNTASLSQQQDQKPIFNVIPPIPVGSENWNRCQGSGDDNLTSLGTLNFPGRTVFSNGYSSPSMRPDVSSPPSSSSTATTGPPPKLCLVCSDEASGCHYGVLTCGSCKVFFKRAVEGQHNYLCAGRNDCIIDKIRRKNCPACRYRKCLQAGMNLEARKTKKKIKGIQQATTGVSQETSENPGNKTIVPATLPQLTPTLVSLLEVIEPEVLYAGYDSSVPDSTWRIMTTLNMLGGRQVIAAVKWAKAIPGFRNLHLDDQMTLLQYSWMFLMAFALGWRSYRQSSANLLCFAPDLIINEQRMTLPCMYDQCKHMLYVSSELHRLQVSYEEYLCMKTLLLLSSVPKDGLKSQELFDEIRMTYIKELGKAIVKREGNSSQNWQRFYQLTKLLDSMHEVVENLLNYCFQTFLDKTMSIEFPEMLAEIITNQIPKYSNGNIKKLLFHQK

[7] = target: T4, progesterone receptor (PR) (Homo sapiens, UniProt P06401); experiment: as above; type: cell-based; conditions: DU145 cells, cognate ligand
T4 construct: expressed in transfected cells; host or cells: DU145
T4 sequence (P06401 1-933): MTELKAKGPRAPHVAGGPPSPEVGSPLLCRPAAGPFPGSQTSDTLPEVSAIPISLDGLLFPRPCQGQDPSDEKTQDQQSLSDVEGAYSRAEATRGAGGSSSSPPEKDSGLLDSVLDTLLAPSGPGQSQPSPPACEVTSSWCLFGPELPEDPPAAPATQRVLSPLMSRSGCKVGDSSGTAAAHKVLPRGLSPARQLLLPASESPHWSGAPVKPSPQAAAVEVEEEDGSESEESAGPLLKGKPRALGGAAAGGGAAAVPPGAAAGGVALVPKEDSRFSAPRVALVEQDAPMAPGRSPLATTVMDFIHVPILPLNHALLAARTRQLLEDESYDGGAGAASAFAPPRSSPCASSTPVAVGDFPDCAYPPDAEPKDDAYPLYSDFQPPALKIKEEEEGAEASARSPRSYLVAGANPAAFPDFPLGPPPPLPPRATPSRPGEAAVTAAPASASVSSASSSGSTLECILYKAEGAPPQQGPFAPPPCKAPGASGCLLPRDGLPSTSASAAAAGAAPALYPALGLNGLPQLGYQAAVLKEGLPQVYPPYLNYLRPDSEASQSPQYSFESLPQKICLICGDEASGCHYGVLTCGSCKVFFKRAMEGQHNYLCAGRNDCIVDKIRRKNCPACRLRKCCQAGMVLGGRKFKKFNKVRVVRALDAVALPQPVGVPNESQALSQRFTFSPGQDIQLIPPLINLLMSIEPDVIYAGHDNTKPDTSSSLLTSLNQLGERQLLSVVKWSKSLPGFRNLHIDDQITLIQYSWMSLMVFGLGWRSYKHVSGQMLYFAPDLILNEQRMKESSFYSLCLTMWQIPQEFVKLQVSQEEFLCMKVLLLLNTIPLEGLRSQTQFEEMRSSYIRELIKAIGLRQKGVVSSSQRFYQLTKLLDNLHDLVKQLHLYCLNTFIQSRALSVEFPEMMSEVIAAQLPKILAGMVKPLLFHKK

[8] = target: T5, estrogen receptor (ER) (Homo sapiens, UniProt P03372); experiment: Steroid receptor transactivation, ERE-CAT reporter in DU145 cells; type: cell-based; conditions: DU145 cells
T5 construct: expressed in transfected cells; host or cells: DU145
T5 sequence (P03372 1-595): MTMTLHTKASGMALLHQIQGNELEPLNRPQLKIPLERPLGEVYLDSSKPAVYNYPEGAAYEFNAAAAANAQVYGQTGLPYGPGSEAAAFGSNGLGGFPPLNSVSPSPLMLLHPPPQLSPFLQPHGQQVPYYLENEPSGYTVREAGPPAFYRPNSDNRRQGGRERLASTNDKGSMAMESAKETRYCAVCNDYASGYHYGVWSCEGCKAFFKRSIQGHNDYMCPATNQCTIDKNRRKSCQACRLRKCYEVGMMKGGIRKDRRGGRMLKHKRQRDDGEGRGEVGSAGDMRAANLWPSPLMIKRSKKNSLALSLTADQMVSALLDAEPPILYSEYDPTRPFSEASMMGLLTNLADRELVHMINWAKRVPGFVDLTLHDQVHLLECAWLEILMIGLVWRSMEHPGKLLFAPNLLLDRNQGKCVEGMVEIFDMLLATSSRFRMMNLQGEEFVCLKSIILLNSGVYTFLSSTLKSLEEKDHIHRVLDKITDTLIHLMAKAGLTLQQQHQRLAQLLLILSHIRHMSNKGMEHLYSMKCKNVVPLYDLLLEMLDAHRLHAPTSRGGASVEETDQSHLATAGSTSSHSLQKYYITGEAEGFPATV

Molecule: Rb: retinoblastoma protein, SEQ ID NO:8, expressed by transfection as AR coactivator
- induced CAT activity in mammalian two-hybrid assay (interaction with AR) ([3]; DU145, Rb with near full length AR (aa 36-918)): 3 fold
- AR transcriptional activity induction with cotransfected coactivator [4]: 21 fold

Molecule: C[C@]12CC[C@@H]3c4ccc(O)cc4CC[C@H]3[C@@H]1CC[C@@H]2O [E2, 17 β estradiol]
- response of Art877a transactivation to ligand ([5]; absence of ARA54, E2 10^-9-10^-7 M, HF 10^-7-10^-5 M): responded
- response of LNCaP mAR to ligand compared to wtAR ([5]; compared to wtAR): responded much better

B1: ARA54: 54 kDa androgen receptor coactivator, 474 aa, SEQ ID NO:2, expressed by transfection (protein)
chain: MSSEDREAQEDELLALASIYDGDEFRKAESVQGGETRIYLDLPQNFKIFVSGNSNECLQNSGFEYTICFLPPLVLNFELPPDYPSSSPPSFTLSGKWLSPTQLSALCKHLDNLWEEHRGSVVLFAWMQFLKEETLAYLNIVSPFELKIGSQKKVQRRTAQASPNTELDFGGAAGSDVDQEEIVDERAVQDVESLSNLIQEILDFDQAQQIKCFNSKLFLCSICFCEKLGSECMYFLECRHVYCKACLKDYFEIQIRDGQVQCLNCPEPKCPSVATPGQVKELVEAELFARYDRLLLQSSLDLMADVVYCPRPCCQLPVMQEPGCTMGICSSCNFAFCTLCRLTYHGVSPCKVTAEKLMDLRNEYLQADEANKRLLDQRYGKRVIQKALEEMESKEWLEKNSKSCPCCGTPIEKLDGCNKMTCTGCMQYFCWICMGSLSRANPYKHFNDPGSPCFNRLFYAVDVDDDIWEDEVED
modifications: Homo sapien
- effect of ARA54 on GR transcriptional activity [6]: less than 2 fold
- CAT activity on coexpression of AR with ARA54 ([3]; DU145, 10^-8 M DHT): significantly induced
- induction of PR transcriptional activity by ARA54 [7]: 3–5 fold
- enhancement of wtAR transactivation by coexpressed ARA54 ([4]; DHT 10^-10 to 10^-8 M): 3–5 fold
- induction of AR transcriptional activity by ARA54 ([4]; DU145 cells, cognate ligand): up to 6 fold
- effect of ARA54 on ER transcriptional activity [8]: less than 2 fold

Second part, led by results:

- increase of AR transcriptional activity [2]: 70%
Molecule: TGFβ
- induction of ARA55 mRNA [1]: 2 fold

- AR transcriptional activity induction with cotransfected coactivator [4]: 36 fold
Molecule: ARA70: the first identified AR coactivator, used as positive control [reference compound]
